From PMC8695127 (2021) come the findings set out here.

In assay [1] the target is T1, SARS-CoV-2 spike (S) protein peptide on HLA-DPA1*01:03 / HLA-DPB1*04:01 (human).
T1 peptide: TFEYVSQPFLMDLE
The assay can be described thus: multimer staining.

Assay [2] addresses T2, SARS-CoV-2 spike (S) protein peptide on HLA-DPA1*01:03 / HLA-DPB1*04:01 (human).
T2 peptide: CTFEYVSQPFLMDLE
The assay can be described thus: activation reporter or marker.

For assay [3], the target named is T3, SARS-CoV-2 spike (S) protein peptide on HLA-DPA1*01:03 / HLA-DPB1*04:01 (human).
T3 peptide: TFEYVSQPFLMDLE
Kind of assay: multimer staining.

B1: TCR4.1 (TCR)
alpha TRAV35 TRAJ42 CDR3: CAGMNYGGSQGNLIF
beta TRBV4-1 TRBJ1-2 CDR3: CASSQGVGYTF
With B1, the binding result in assay [1], in assay [2] and in assay [3] was “recognises” throughout.

B2: TCR6.3 (TCR)
alpha TRAV35 TRAJ42 CDR3: CAGMNYGGSQGNLIF
beta TRBV6-3 TRBJ1-2 CDR3: CASSYRGAYGYTF
Consider B2, for which the binding result in assay [2] and in assay [3] was “recognises” each time.
